The source of these data is patent US20250002594A1 (SHANGHAI EPIMAB BIOTHERAPEUTICS, published 2025).

Numbering of substitutions follows the chain as printed.

Test [1] concerns the target T1, human CD122 on HEK293 cells (human, UniProt P14784 27-551).
T1 construct: whole, on cells; also called cell surface CD122
T1 sequence (looked up): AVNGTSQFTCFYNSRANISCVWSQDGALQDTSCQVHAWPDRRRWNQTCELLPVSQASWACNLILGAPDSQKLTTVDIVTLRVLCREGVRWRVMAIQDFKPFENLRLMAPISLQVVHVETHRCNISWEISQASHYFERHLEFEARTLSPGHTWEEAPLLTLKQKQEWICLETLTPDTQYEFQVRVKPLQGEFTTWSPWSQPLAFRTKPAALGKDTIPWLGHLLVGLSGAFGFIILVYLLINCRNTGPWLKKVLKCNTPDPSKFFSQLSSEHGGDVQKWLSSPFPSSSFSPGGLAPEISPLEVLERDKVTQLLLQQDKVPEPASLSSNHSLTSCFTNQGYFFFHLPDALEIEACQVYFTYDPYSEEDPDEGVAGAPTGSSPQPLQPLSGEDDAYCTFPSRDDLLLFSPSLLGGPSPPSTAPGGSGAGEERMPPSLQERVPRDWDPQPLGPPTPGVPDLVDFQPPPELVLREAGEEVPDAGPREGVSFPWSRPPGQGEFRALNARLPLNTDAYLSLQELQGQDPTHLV
In words: Flow cytometry (MFI) on HEK293 cells overexpressing human CD122; the table gives no unit, the axis is Fab conc.(nM). As to the method:
(§1) Briefly, a 96-well plate was seeded with 3×10⁵ cells each well, centrifuged at 400 g for 5 minutes and supernatants discarded, then added 100 μl of antibody (5× serial dilutions, 0.0064 to 100 nM) each well and gently mixed. After 60 minutes of incubation at 4° C., plates were washed several times to remove excess antibodies. Secondary fluorochrome-conjugated goat anti-human IgG antibody (Jackson Immunoresearch, Cat No. 109-606-098) was then added and incubated with cells at 4° C. for 20 minutes. After another round of centrifugation and washing, cells were resuspended in assay buffer (1X PBS containing 2% FBS) for reading on a flow-cytometer. Median Fluorescence Intensity (MFI) readouts were plotted against antibody concentration and analyzed with GraphPad Prism 6.0 software.
In general terms: In flow cytometry, cells or beads pass a laser one at a time.

Test [2] deals with T2, human CD132 on HEK293 cells (human, UniProt P31785 23-369).
T2 construct: whole, on cells; also called cell surface CD132
T2 sequence (looked up): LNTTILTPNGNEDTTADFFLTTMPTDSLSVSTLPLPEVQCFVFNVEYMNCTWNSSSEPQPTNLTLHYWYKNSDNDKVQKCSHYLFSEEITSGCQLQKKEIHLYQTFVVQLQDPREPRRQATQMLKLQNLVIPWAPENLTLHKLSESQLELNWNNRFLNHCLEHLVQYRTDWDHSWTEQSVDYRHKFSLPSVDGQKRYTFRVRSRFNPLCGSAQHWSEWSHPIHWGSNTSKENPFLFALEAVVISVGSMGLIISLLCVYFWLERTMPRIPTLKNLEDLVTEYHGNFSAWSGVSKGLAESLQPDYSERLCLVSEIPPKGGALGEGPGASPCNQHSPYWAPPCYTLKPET
Description: Flow cytometry (MFI) on HEK293 cells overexpressing human CD132; the table gives no unit, the axis is Fab conc.(nM). The protocol: as §1

The next test concerns the target T3, recombinant cyno CD122 (cynomolgus, UniProt Q38J85 27-239, limits assumed).
T3 construct: also called cynomolgus CD122
T3 sequence (looked up): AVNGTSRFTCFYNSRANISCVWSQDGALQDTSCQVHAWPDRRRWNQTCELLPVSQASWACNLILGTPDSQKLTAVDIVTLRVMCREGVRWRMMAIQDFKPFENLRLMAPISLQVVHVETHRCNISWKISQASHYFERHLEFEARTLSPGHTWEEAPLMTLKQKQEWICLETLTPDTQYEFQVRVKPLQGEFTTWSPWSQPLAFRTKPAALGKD
Description: GCI (WAVEsystem), FIT-Ig captured by anti-human IgG Fc, antigen in solution. The protocol: (§2) Binding affinity and kinetics constants of humanized CD122/CD132 FIT-Ig were determined using a label-free biosensor on WAVEsystem (Creoptix AG, Switzerland) by grating-coupled interferometry (GCI). Briefly, a PCP WAVEchip (Creoptix AG) was pre-immobilized with goat anti-human IgG Fc antibody to a density of 3830 pg/mm² by amine coupling, and used to capture humanized CD122/CD132 FIT-Ig generated from Example 3.2.1 to a density of ˜90 pg/mm², then exposed to recombinant human/cyno CD122 or CD132 serially diluted (3× dilutions from 200 nM to […] for human CD122, human CD132 and cyno CD132, respectively; and from 1000 nM to 1.37 nM for cyno CD122) in 1X HBS-EP+ buffer (Cytiva, Cat No. BR100669) by injection at 60 μL/min for 250s to assess association, followed by 1200s dissociation. After each round of association and dissociation, WAVEchip surface was regenerated by subject to pH 1.5 Glycine-HCl buffer injection at 60 μL/min for 120s. Sensorgrams were recorded at 25° C., the data were analyzed on WAVEcontrol (Creoptix AG) and double referenced by subtracting the signals from blank injections and the reference channel. A Langmuir 1:1 model was used for data fitting.

The target of a further test is T4, recombinant human CD132 (human, UniProt P31785 23-262, limits assumed).
T4 construct: also called IL-2Rγ
T4 sequence (looked up): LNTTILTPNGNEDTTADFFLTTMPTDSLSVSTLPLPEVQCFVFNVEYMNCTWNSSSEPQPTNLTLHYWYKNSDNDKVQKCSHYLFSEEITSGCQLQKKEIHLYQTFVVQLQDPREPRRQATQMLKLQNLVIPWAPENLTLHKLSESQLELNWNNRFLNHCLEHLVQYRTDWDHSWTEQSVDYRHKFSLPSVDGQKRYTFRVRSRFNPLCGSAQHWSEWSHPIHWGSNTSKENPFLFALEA
The test is described as above. As to the method:
as §2

For the next test, the target named is T5, recombinant human CD122 (human, UniProt P14784 27-239, limits assumed).
T5 construct: also called IL-2Rβ
T5 sequence (looked up): T3 sequence (looked up) with R7Q, T66A, A74T, M83L, M92V, K127E, M158L
Described as above. As to the method: as §2

A further test has as its target T6, recombinant cyno CD132 (cynomolgus, UniProt A0A2K5VGJ6 23-262).
T6 construct: also called cynomolgus CD132
T6 sequence: T4 sequence (looked up) with T14A, A16T, T22S, H141R, T228S
Described as above. As to the method:
as §2

Test [3] deals with T1, human CD122 on HEK293 cells. In words: Flow cytometry (Median-APC) on HEK293/CD122 cells; the box gives no unit, the axis is Ab conc.(nM). As to the method:
as §1

Test [4] has as its target T2, human CD132 on HEK293 cells. Description: Flow cytometry (Median-APC) on HEK293/CD132 cells; the box gives no unit, the axis is Ab conc.(nM); the curve has no upper plateau in the range shown. As to the method:
as §1

In test [5] the target is T7, CD122/CD132 complex on HEK-Blue IL-2 cells (UniProt P14784 27-551; P31785 23-369, limits assumed).
T7 sequence (looked up) 1: T1 sequence (looked up)
T7 sequence (looked up) 2: T2 sequence (looked up)
Description: cell-based or functional assay.

B1: Duo2019-86b (bispecific antibody, human IgG1, kappa, L234A L235A)
heavy 1: EVQLQQPGSELVRPGASVKLSCKASGYTFTSYWMHWMKQRPGQGLEWIGHIYLGGGATNYAEKFRSKATLTADTSSSTAYMQLSSLTSEDSAVYYCTRSQPYYYGMDSWGQGTSVTVSSASTKGPSVFPLAPSSKSTSGGTAALGCLVKDYFPEPVTVSWNSGALTSGVHTFPAVLQSSGLYSLSSVVTVPSSSLGTQTYICNVNHKPSNTKVDKKVEPKSCDKTHTCPPCPAPEAAGGPSVFLFPPKPKDTLMISRTPEVTCVVVDVSHEDPEVKFNWYVDGVEVHNAKTKPREEQYNSTYRVVSVLTVLHQDWLNGKEYKCKVSNKALPAPIEKTISKAKGQPREPQVYTLPPSREEMTKNQVSLTCLVKGFYPSDIAVEWESNGQPENNYKTTPPVLDSDGSFLLYSKLTVDKSRWQQGNVFSCSVMHEALHNHYTQKSLSLSPGK
light 1: DIQMTQTPSSLSASLGDRVTISCRASQDISNYLNWYQQKPDGTVKLLIYYKSRLHSGVPSRFSGSGSGTEYSLTINNLEQEDFATYFCHQGHTIPFTFGSGTKLEIKRTVAAPSVFIFPPSDEQLKSGTASVVCLLNNFYPREAKVQWKVDNALQSGNSQESVTEQDSKDSTYSLSSTLTLSKADYEKHKVYACEVTHQGLSSPVTKSFNRGEC
heavy 2: QVQLQQSGPELVKPGASVKMSCKASGYRFSDYVISWVKQRSGQGLEWIGEIYPGDGNTYYNEMFKGRATLTADKSPNTAYMKLSSLTSEDSALYFCARGSYTYDNYAMDFWGQGTSVTVSSASTKGPSVFPLAPSSKSTSGGTAALGCLVKDYFPEPVTVSWNSGALTSGVHTFPAVLQSSGLYSLSSVVTVPSSSLGTQTYICNVNHKPSNTKVDKKVEPKSCDKTHTCPPCPAPEAAGGPSVFLFPPKPKDTLMISRTPEVTCVVVDVSHEDPEVKFNWYVDGVEVHNAKTKPREEQYNSTYRVVSVLTVLHQDWLNGKEYKCKVSNKALPAPIEKTISKAKGQPREPQVYTLPPSREEMTKNQVSLTCLVKGFYPSDIAVEWESNGQPENNYKTTPPVLDSDGSFFLYSRLTVDKSRWQQGNVFSCSVMHEALHNHYTQKSLSLSPGK
light 2: DVLMTQTPLSLPVSLGDQASISCRSSQNIVHSNGNTYLEWYLQKPGQSPKLLIYKVSNRFSGVPDRFSGSGSGTDFTLKISRVEAEDLGLYYCFQGSHIPWTFGGGTKLEIKRTVAAPSVFIFPPSDEQLKSGTASVVCLLNNFYPREAKVQWKVDNALQSGNSQESVTEQDSKDSTYSLSSTLTLSKADYEKHKVYACEVTHQGLSSPVTKSFNRGEC
notes: 1+1 asymmetric IgG1 made by Fab-arm exchange; printed both as Duo2019-86 and Duo2019-86b
Usually EC50 stands for the concentration at which the effect is half-maximal. Low readings indicate an effect from little substance, high ones a need for much substance. As for B1, the figures for the EC50 in test [1] and in [2] were 1.63 nM and 11.4 nM, respectively.

B2: huFIT2019-86b-51 (bispecific antibody, human IgG1, kappa, L234A L235A)
chain 1: not shown
chain 2: EVQLVQSGAEVKKPGASVKVSCKASGYTFTDYVISWVRQATGQGLEWMGEIYPGDAQTYYNEMFKGRVTMTRDTSISTAYMELSSLRSEDTAVYYCARGSYTYDNYAMDFWGQGTTVTVSSASTKGPSVFPLAPSSKSTSGGTAALGCLVKDYFPEPVTVSWNSGALTSGVHTFPAVLQSSGLYSLSSVVTVPSSSLGTQTYICNVNHKPSNTKVDKKVEPKSC
chain 3: not shown
notes: also called huFIT2019-8b-51
The Kd is the concentration at which binding is half-saturated. As usually defined, the koff is the first-order rate constant of dissociation. One may read the kon as a measure of how fast the partners come together. As for B2, the dissociation constant Kd in the test with recombinant cyno CD122 is 91.6 nM; with recombinant human CD132, 9.02 nM; with recombinant human CD122, 17.1 nM; with recombinant cyno CD132 it was 10.6 nM. For the same molecule, the off-rate (koff) with recombinant cyno CD122 came to 0.00697 s⁻¹; in the test with recombinant human CD132, 0.000339 s⁻¹; with recombinant human CD122, 0.00107 s⁻¹; with recombinant cyno CD132, 0.000286 s⁻¹. Besides, the kon in the test with recombinant cyno CD122 is 76100 M⁻¹ s⁻¹; with recombinant human CD132 it was 37500 M⁻¹ s⁻¹; in the test with recombinant human CD122 it was 62700 M⁻¹ s⁻¹; in the test with recombinant cyno CD132, 27000 M⁻¹ s⁻¹. Besides, the 50% effective concentration (EC50) in [3] was determined as 5.27 nM; in test [4] it was 17.8 nM. The “EC50 from SEAP reporter gene assay” value in [5] is 0.19 nM.
